# According to the DeepSol protein solubility set:
# Assay: soluble on expression in E. coli; label from the status in PepcDB or PDB records
row,Sequence,soluble on expression in E. coli
1,MSLNVDVLLKNVWLYQTVTQTFVQRNVAIKNDKFYYIYEEENVNLQPQKTINAENQWMIPGLIDAHMHIESSMTTPTIFSKAVVRYGVTTVIADAHEMANVFGLEGLKAFMAAETELDIFHAIPSSVPSTTPELETTGGIIGLAEVAELLKEPKVICLGEAMNFKGISYEPDSLIRQIIDLCQKQRPTMPLEGHCPKIEDQELADFLYSGITSDHTHQFPKTLKEKIEAGVFIQFQNKSITPENIQVIVDNDFYNYASIITDDVMADDLLKGHLNENVKKAVHAGLPIEKAIYMATYTPAKRMGLHDRGEIAPGKKADFLLLNDLESFDINTVYKSGKVVFEKGEPFHYPEKIEEFPATYQQTIQCKKLTEEDLLLKVATTKETVRCNVIQKQEIGTFTERITKEIPVENGLLQWQKANCALLIVMERYGKNGNISFSLMDQPLSEKGAIATTWAHDHHNLMVMGNTIEDILLAQNELLAMQGGYLVASDQQVMATCPLPIGGILSQAPIEQLGASLQKVRQAMQALGYQNMNEIMSFSTLSLPVSPAIKVTDFGMMDTKSQRFYPLVFPEDGVLLHENTHEGHHHHHH,soluble
2,MSLNVLIVDDEKLIRQGIINFFDWEKEGFQIVGEAANGKDALELISKNEPHIVMTDIVMPVMDGIDLVKRVKRDFPEVEIIVLSSFEEFEYVRSTFHSGVADYILKPRLNEKDLLKTLSEVRGKIPALAKVDSPSRAVPSISDQFEKILNGHAPLSQDDTGEKRFPKGPYRLAVITPIEEQDVHRRKQHLDEREQAITGIDVVCSIEKEGDAVLLLPLEGDVSSSMKQALDDFLKGRDAHALLVSSPFSSIYEAKEVYERDIPLLKQYSFYLPDTPLLIYDELPKTNEGVKTFDLNHFIELCKGRKFAIGFQYLLDYVEYMSTRYTQTSTECKAFLGNIIFNMIVLMGNLKYDVKELEREKYHYFATINAAKNVREATDCFYQFLEVTKQIISVYSNEGSSSIQKMLAYIEEHHSEPLSLSQLANYFHFNPSYLSAYFRQHHDEGFSEYLNKVRIRKAKEWLKSSTIPISEIYALVGYSDHSYFCKVFKKRTGMPPSRYRRENAEGHHHHHH,soluble
3,MSLNVMYKNSCPNCGGDISGDRLLNGLPCEACLPYINGIDDVDHISKVKTLYNILLNNDKIKNYWNLYYNITTFETVFKYFRDKTGYEPWSLQKLWLRRLASNQSFTMSAPTGLGKTTTLMTYSVFIGQDVVYIVPTKSLMEQVCKRLEKLGAQVSCGKIDQKKVSVITISYLNKNADSIVSLKPNFVVIDDADAVIKSGKTTDRLVSLLGIPKDVYESAIQLIRLRNKYYFSNEYTEEVKEKIRELELKIAEFKDKISQLVIASATIRPKGIKQKALRLLTGFEPSSIQLYARNIIDAYTENLDLSIVKELGSGGLILVSKEYGRSKLNEIKKYVEDLGFNAKLAISGRKFLDDFSQGKVDILVGSASYYGVAVRGIDEPKRLKYVIYYGVPKIRAKLFDALSNPFTLLRVGKLIGIDFSKLQNKILILNPSEVQLLKFSIIKGEGHHHHHH,not soluble
4,MSLNVTVHGVPVGSLTREEARAKIESHFAPFLAQPVMLTYSGRTWTPTLAELGAELAIDEAVDKAVAVGRGHDLFTNLQQIGAVWQRGLELPLHLSIDQDALQRYLLDRVAEVERPAVDARLVLHGTTVRVEPSAFGRQVLVNDTLHEIVAALQDLNPDTIALRTRTLEPALRDDAAIVAQDQIAALLAGPITLLIDDRPFVWSLDELARMVRVERIPDPAGDRLVVSIDHELVRARIREIGDATEVKGTYPRLNWNDGRLEIFQEGKPGRRIDEDQVFAAVLDALTKPAEQRTVTVAFREIPPPITAANLDQLGITTLIGVGRSDFTGSAAYRVTNIQAGMRLLHGVLIAPGEEFSFNQTIGRIDRSNGFVEGYAIIQNRTQLEWGGGICQDSTTMFRAAFWAGLPITERWGHSFYISWYDRYAFGPYGDGPGMDATIFTGGPDLKFLNDTGGWLLIQTLVDTHRHLAEVRLYGPDTGRKVLLEGPIITNRTEGHHHHHH,soluble
5,MSLNWKQLISAKRFGMEEFHEERQENRSEFQRDYDRLIFSAPFRRLQNKTQVFPLPGSIFVHNRLTHSLEVSCVGRSLGNDVAKAILERQPELESSFLPEIGSIVSAACLAHDLGNPPFGHSGERAISTFFSEGKGQRLQEKQPDGEQLSPMEWEDLTHFEGNANAFRILTHQFEGRRRGGFVLTYSTLASIVKYPFSSSLAGKKSKFGFFVSEEESYRKIATELGLIQLSEQPLKYARHPLVYLVEAADDICYQMMDIEDAHKLKIITTDETKELLMAFFSEDRQSRLRSTFQIVNDINEQIAYLRSSVIGLLVRECTRVFLEHEQEILAGTFEGALIKHIAEGPAAAYNHCAEISLKRIYRSQDVLDIELAGFRIISTLLELMVDAVTLPGKEKAYSELLTNRVSDQYNIKSPVLYERIQAVLDYISGMTDVFALDLYRKINGNSLPAEGHHHHHH,soluble
6,MSLNYRHAFHAGNFADLHKHAILLAMLSALQEKSPALAVIDTHAGAGGYDLAGEMARRSGEAQAGIFRLKAAADAPAVFQPLLNAITQMNGGKDGDLYPGSPRLMARALRGADRYVGCELRDDDADLLRKTLAPCANARALQADGFDTAVKDAGKGGRAFIVIDPPFERPDDYDRIVATTRAVLARAPDAALAIWLPIKDLETFDAFLRAMETVTSDLLVAELRLRPLTDPMKMNGCAMVMIGAPPSVEDAAVAAGDWIATRLGEPGGRSRVWRTEGHHHHHH,soluble
7,MSLPAPQDPRNLPIRQQMEALIRRKQAEITQGLESIDTVKFHADTWTRGNDGGGGTSMVIQDGTTFEKGGVNVSVVYGQLSPAAVSAMKADHKNLRLPEDPKTGLPVTDGVKFFACGLSMVIHPVNPHAPTTHLNYRYFETWNQDGTPQTWWFGGGADLTPSYLYEEDGQLFHQLHKDALDKHDTALYPRFKKWCDEYFYITHRKETRGIGGIFFDDYDERDPQEILNMVEDCFDAFLPSYLTIVKRRKDMPYTKEEQQWQAIRRGRYVEFNLIYDRGTQFGLRTPGSRVESILMSLPEHASWLYNHHPAPGSREAKLLEVTTKPREWVKEGHHHHHH,soluble
8,MSLPITLDKKLPAVDILKSENIFVMDDKRAIHQDIRPMSILILNLMPTKVATETQLLRLLANTPLQLSVDFLYMTSHHSKTTQAEHMKTFYKTFKDIKDNYYDGLIITGAPVETMPFEKVDYWEELCQVFQWSKTHVYSTLHLCWGAQAGLYYRYSVDKVQMTDKLSGIYLQKVNEQLSPLMRGFDDCFLSPHSRYTEVLLKDINNKTNLEILASGEKVGLSILASRDMREVYSFGHLEYDRETLDNEYKRDLKAGKSPKIPENYYQDDDVTTHPIMRWNLAAATFFSNWINYAVYQETPYRLEELEKDISFYGYLEGHHHHHH,soluble
9,MSLPKEEILTGPAVIKIVSTYMGPEHVELVQKALTYAEKAHEGQVRQSGEPYIIHPIQVAGILAELHMDPHTVATGFLHDVVEDTDVTLDDLKEEFGEDIAMLVDGVTKLGKIKYKSHEEQLAENHRKMLLAMAQDLRVIMVKLADRLHNMRTLKHLREDKQRRIAQETLEIYAPLAHRLGISRIKWELEDTALRYINPNQYYRIVNLMQSKRDEREAYVAEAVEDIRLATEDLEIYAEIYGRPKHIYSIYRKMKDQKKQFNEIYDLLAIRVIVDSIKDCYAVLGAIHTRWTPMPGRFKDYIAMPKANMYQSIHTTVIGPKGNPVEVQIRTHEMHQIAEFGVAAHWAYKEGKAEKIETDELTKQVDWFHEIIELQDESYDASEFMQGVKEDIFSDKVYVFTPSGDVTELPKGSGPLDFAYSIHTEIGNKTTGAKVNGKMVQLDYVLKNGDIIEVLTSPNSFGPSRDWLKMVKTSKAKNKIKRFFKEQDREDNIIKGHDAVIKYMTEIGFTPKEFLTKNKMAEVLDKFKFQTEDDLFAAVGYGEVSAQVVCNRLTEKERREQELERQRQEAEELLNQPAKKESEKMKVRHEGGIVIQGVDNLLIRLSRCCNPVPGDEIVGYITKGRGVSIHRADCPNVQHQEELAQRLIEVEWEDTEHSRKEYAADLEIYGYDRSGLLSDVLQVISSMTKNLVGVEARPSKDKMAQIHVTVKIQNLSHLKTIVDKIKSVPDVYSVRRTNGEGHHHHHH,soluble
10,MSLPNNEKITRLQQQEKNTQQTVTVAKNKAANLAKFQKEVEATTLDFETQAALLPKEKEIPKLLKDISALGSNTGLDFISFKPLANRPKDFYAEIPISIQVRGPYHNVGSFFDQINKLERIVSVKSVKMTSPKKEDGEMLLTSNCQLVTYQFTNIELPKEGHHHHHH,soluble
11,MSLPSAQAPSLLNPTDDFAALGNIAWLWMNSPMHRDWPVHLLARNTLAPIQLGQYILLRCNDVPVAYCSWALMDADTELSYVMAPSSLGGNAWNCGDRLWIIDWIAPFSRDDNRALRRALAERHPDSVGRSLRVRRGGDTARVKEYRGRALDAAAARAQLDRYHAELIAGLRASNGGYAPREGHHHHHH,not soluble
12,MSLPWLHRETARSFGGAGSTAGYEQVTAYTLTGQLQSRHLNLPQLDCDYDWNDNGQLIRISGPQESREYRYSDTGRLTGVHTTAANLDIDIPYATDPAGNRLPDPELHPDSTLTAWPDNRIAEDAHYVYRYDEYGRLTEKTDRIPEGVIRMHDERTHHYHYDNQHRLVFYTRIQYGEPLVESRYLYDPLGRRTGKRVWRRERDLTGWMSLSRKPEVTWYGWDGDRLTTVQTGTTRIQTVYRPGSFTPLIRIETENGEREKAQRRSLAEKLQQEGSEDGHGVVFPAELVRMLDRLEEEIRADRVSSESRAWLAQCGLTVEQLEKQVEPEYTPARTLHLYHCDHRGLPLALISEDGNTAWSAEYDEWGNQLNEENPHHLHQPYRLPGQQHDEESGLYYNRHRYYDPLQGRYITPDPIGLRGGWNMYQYPLNPIQVIDPMGLDAIENMTSGGLIYAVSGVPGLIVANSITNSAYQFGYDMDAIVGGAHNGAADAMRYCYLMCRMTKTEGHHHHHH,soluble
13,MSLQAAKEVCLWPLHEREPDTTWSRGPLVLLGDAGHPMRPHMAQGAAMAIEDAAVLVRCLRAYGAAAGAAYDHYQQTRAERVAQVQKVSSENSWMRTPTDPEWVFSYDALLAPEGHHHHHH,not soluble
14,MSLQEDPVVMRINGKDIPRSEFEYSYRRHADGNGMKLSPKEYAEFFIQSKLKVEAARAAGLDTTSAFRKQQEAYRTNLLRSYLLDDQEMDGNARILYQKMKENVRGGQVQIQQIYKYLPQTITSRHLQEEQARMDSIYQVIQNQPGVDFARLVDRFSDDKRCRWIESLQTTSEFEEAAFSLAKGEISKPFFTPEGIHILKVIDRKEVPAYEVVSDSLLNRLRRQPLDKGTEAIVEQLKKEYQYIPNMESLEEVLQKGGTERTLFTIDGQAYTGEMFKRFAASHPQAVKRQLNGFIAKSLLDYESQHMERKHPELRYTLQEYAEKCLAEEIVHQKVDLPAVNDRVGLATYFKFHSSDYRWEHPRYKGVVLHCADKKTAKQAKKLLKKVPENEWEDMLRKTFNTSGAEIIKIEQGVFADGDNKYIDKLVFKKGAFDPVVSYPFTIAVGKKQKGPEDYREVIDQVRKDYRNYLNAYWERELRESGKVEINQEVLKTVNNEGHHHHHH,soluble
15,MSLQESSFVHLHNHTQFSVLQSTMAVPDLVAAAAKHNMPAVAITDHANMMGAFHFVNAVKKHNSAIANDSENTSQPIKPIIGCEFFVCEDHTDRTHKDNGYQMVILAKNKKGYHNLAKMSSMGFTKGFYYIPRIDKKLIETYKDDLIVLSGSLYGEIASKLLNLGENQAEESLVWWKETFGDDFYVEIMRHQQEDEERANEALIRLANKHDINLVATNNTYYADQKDANAHDILLCVKEGEKQATPIGRGRGYRYGLPNDQYYFKSAEEMKSLFKDLPQAISNTEAIANKVEAFELAREVLLPAFVIPEQFLDEADKTDAGKRGENAYLKHLTFEGAKRRYGELSEEIKDRLDFELSVIANTGYPGYFLIVEDFIREARKMGVSVGPGRGSAAGSAVAYCLKITNIDPIKYDLLFERFLNPERVSMPDIDIDFDDEGRSKVMDYVIEKYGQNQVAQIITYGTMAAKSAIRDTARVLDLPLYEADRIAKLIPDMSKLGKIFSMNEKEEGHHHHHH,soluble
16,MSLQNAKLMLTCLAFAGLAALAGCSFPGVYKIDIQQGNVVTQDMIDQLRPGMTRRQVRFIMGNPLIVDTFHANRWDYLYSIQPGGGRRQQERVSLFFNDSDQLAGLNGDFMPGVSRDEAILGKEGSTTVTQPADQQKPEAQKEEPPKPGSTLEQLQREVDEAQPVPVPTPEPLDPSPQEGHHHHHH,soluble
